Measured values: patent US8663616B2, “Enzymatic peracid generation for use in oral care products” (E I du Pont de Nemours and Company, priority 2010, dated 2014)
Values belong to the molecule of their own block, whether it stands above or below them.

Columns and labels:
[1] = Perhydrolase activity of enzyme bound to hydroxyapatite discs, ABTS (Example 7); format: biochemical; conditions: for Avg Absorbance Background subtract: background = no enzyme, no HAP (0.775); for Avg Absorbance at 5 min: discs incubated in 20 μM enzyme, 6 washes, 0.346% triacetin, 3.46 mM H2O2, A405; for PAA conc μM per disc: enzyme bound to hydroxyapatite disc, 5 min, no enzyme control 1.2
Experimental: (§1) The detection of peracetic acid followed the method described in Pinkernell et. al. (Analyst, 1997, 122, 567) using colorimetric detection of 2,2′-azino-bis(3-ethylbenzothiazoline(-6-sulfonate (ABTS) oxidation by peracetic acid. Following the formation of peracetic acid with the addition of triacetin and hydrogen peroxide, 90 μL of solution was added to 10 μL of 0.1 M H3PO4 in a well plate. 50 μL of 1 M acetic acid, 50 μL of 0.5 g/L ABTS and 50 μL of 0.002 g/L of KI was added. The solution was allowed to develop for 5 min. The absorbance of the solution was measured at 405 nm using a microplate reader. The peracetic acid concentration was calculated based on a standard curve developed simultaneously using peracetic acid reagent solution.
The perhydrolase activity of the fusions once bound to HAP discs surfaces was determined with the same ABTS method. Hydroxyapatite discs (HiMed Inc, Old Bethpage, N.Y.; 5 mm dia.×1.8 mm thick) were incubated in 20 μM enzyme solution (50 mM potassium phosphate buffer pH 7.2) for 60 min followed by 6 times of washes (50 mM potassium phosphate buffer pH 7.2). The discs with enzyme adsorbed were transferred to new wells and 200 μL of phosphate buffer (10 mM pH 7.2), 30 μL of 3% triacetin (final concentration of 0.346%) and 30 μL of 30 mM H2O2 (final concentration of 3.46 mM) were added. The solution was allowed to incubate at room temperature for 5 min. 90 μL of solution was pipetted to a new well containing 10 μL of 100 mM H3PO4. 50 μL of acetic acid, 50 μL KI, 50 μL ABTS were added as described above. The solution was developed for 5 min at room temperature and read at A405 nm.

[2] = T. maritima C277S/C277T constructs, peracetic acid in solution (Example 11); format: biochemical; conditions: 0.5 μM enzyme, 100 mM triacetin, 100 mM H2O2, pH 7.2, 10 min, 37° C.; no enzyme 114
Procedure, shortened: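 Each perhydrolase at 0.5 μM incubated with 100 mM triacetin and 100 mM H2O2 in 10 mM phosphate buffer pH 7.2, 10 min at 37° C, then stopped with H3PO4. Peracetic acid quantified by ABTS/KI oxidation, absorbance at 405 nm, against a peracetic acid standard curve.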

[3] = Maximum peracetic acid by targeted and untargeted CE-7 perhydrolase with propylene glycol diacetate; format: biochemical; conditions: substrate propylene glycol diacetate; same reaction conditions as Table 20
Experimental: These ester substrates were tested for peracetic acid production using a targeted C277S perhydrolase variant, EZ-7 under the same reaction conditions used to generate date for Table 20. Peracetic acid production using propylene glycol diacetate or sucrose octaacetate with the EZ-7 perhydrolase system is shown in Table 21.

[4] = Two-step bleaching of coffee-tea stained bovine enamel (Example 16)
Experimental: Bovine enamel incisors were prepared as indicated in Example 1. The stained enamel blocks were embedded in a 48 well plate to protect the dentin backside from solution exposure. A solution of 10 μM of each enzyme in 10 mM phosphate buffer, pH 7.2 was prepared and 500 μL of solution was incubated with each enamel substrate for 60 min. The enzyme solution was removed and each well was rinsed three times with an additional 500 μL of buffer. The enamel blocks were placed in a fresh well for the whitening process. A solution with a final concentration of 40 mM triacetin, 100 mM H2O2 in 50 mM phosphate pH 7.2 buffer was freshly prepared and 500 μL of solution was added to each enamel block. Over the course of 1 hr the enamel blocks were removed and a color measurement was obtained and then each was returned to the solution in the well plate. The whiteness index for each sample was monitored.

[5] = Peracetic acid generated in solution by CE-7 perhydrolase fusions (Example 8); format: biochemical; conditions: 0.5 μM enzyme, 100 mM triacetin, 100 mM H2O2, pH 7.2, 10 min, 37° C.; no enzyme 378.9
Experimental: as §1
Perhydrolase enzymes listed in Table 6 were assessed for solution activities. The method to measure the perhydrolase in solution activity was described in Example 7 by making a 500 μL solution containing 0.5 μM of enzyme, 100 mM triacetin, 100 mM H2O2 in 100 mM phosphate buffer, pH 7.2. The solution was mixed and incubated for 10 min at 37° C. A 10 μL aliquot was removed and diluted for detection as described in Example 7. Peracetic acid concentration was determined using a standard curve generated with a stock solution of peracetic acid (Aldrich). The experiment was also performed with no enzyme present as a control.

[6] = Peracetic acid generation from hydroxyapatite bound CE-7 perhydrolase fusions (Example 8); format: biochemical; conditions: hydroxyapatite particles exposed to 10 μM enzyme, washed; 100 mM triacetin, 100 mM H2O2, 30 min, 37° C.; no enzyme 30-118.8
Procedure, shortened: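 Enzyme (10 μM) bound to washed hydroxyapatite particles in 10 mM phosphate pH 7.2 for 30 min, washed three times, then given 100 mM triacetin plus 100 mM H2O2 in 100 mM phosphate pH 7.2, 30 min, 37 °C. Peracetic acid read by ABTS oxidation at 405 nm against standard curve; no-enzyme control.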

[7] = Peracetic acid generated in solution by C277S CXH fusions (Example 9); conditions: 0.5 μM enzyme, sarkosyl buffer, 100 mM triacetin, 100 mM H2O2, pH 7.2, 10 min, 37° C.
[8] = Peracetic acid from C277S CXH fusions exposed to hydroxyapatite discs (Example 9); conditions: no enzyme control subtracted

Maximum Peracetic Acid (ppm), Propylene glycol diacetate [3]: 2165 ppm
B1: EZ-1: Thermotoga maritima acetyl xylan esterase variant C277S, untargeted perhydrolase, SEQ ID NO: 424 (protein, listed as Thermotoga maritima)
chain: MAFFDLPLEELKKYRPERYEEKDFDEFWEETLAESEKFPLDPVFERMESHLKTVEAYDVTFSGYRGQRIKGWLLVPKLEEEKLPCVVQYIGYNGGRGFPHDWLFWPSMGYICFVMDTRGQGSGWLKGDTPDYPEGPVDPQYPGFMTRGILDPRTYYYRRVFTDAVRAVEAAASFPQVDQERIVIAGGSQGGGIALAVSALSKKAKALLCDVPFLCHFRRAVQLVDTHPYAEITNFLKTHRDKEEIVFRTLSYFDGVNFAARAKIPALFSVGLMDNISPPSTVFAAYNYYAGPKEIRIYPYNNHEGGGSFQAVEQVKFLKKLFEKG
Avg Absorbance Background subtract [1]: 0.126
Avg Absorbance at 5 min [1]: 0.901
PAA conc μM per disc [1]: 3.5 μM per disc
Peracetic acid (ppm) In Solution [2]: 4270 ppm
retention on hydroxyapatite and enamel (in words) ([4]; 2-step process): poor retention on hydroxyapatite and enamel
Whiteness Index 0 min ([4]; two-step: 10 μM enzyme 60 min, rinsed, then 40 mM triacetin, 100 mM H2O2, pH 7.2, before step 2): −152.7
ΔWI ([4]; two-step, 0 to 60 min): 56.6
Whiteness Index 5 min ([4]; two-step, 5 min in triacetin/H2O2): −126.2
Whiteness Index 15 min ([4]; two-step, 15 min in triacetin/H2O2): −138.9
Whiteness Index 30 min ([4]; two-step, 30 min in triacetin/H2O2): −144.8
Whiteness Index 45 min ([4]; two-step, 45 min in triacetin/H2O2): −107.3
Whiteness Index 60 min ([4]; two-step, 60 min in triacetin/H2O2): −96.1

PAA (ppm) [5]: 4877.2 ppm
Peracetic acid (ppm) [6]: 4453.7 ppm
Maximum Peracetic Acid (ppm), Propylene glycol diacetate [3]: 2109 ppm
B2: EZ-7: C277S-link1-DenP308-H6, SEQ ID NO: 429 (protein)
chain: MAFFDLPLEELKKYRPERYEEKDFDEFWEETLAESEKFPLDPVFERMESHLKTVEAYDVTFSGYRGQRIKGWLLVPKLEEEKLPCVVQYIGYNGGRGFPHDWLFWPSMGYICFVMDTRGQGSGWLKGDTPDYPEGPVDPQYPGFMTRGILDPRTYYYRRVFTDAVRAVEAAASFPQVDQERIVIAGGSQGGGIALAVSALSKKAKALLCDVPFLCHFRRAVQLVDTHPYAEITNFLKTHRDKEEIVFRTLSYFDGVNFAARAKIPALFSVGLMDNISPPSTVFAAYNYYAGPKEIRIYPYNNHEGGGSFQAVEQVKFLKKLFEKGGPGSGGAGSPGSAGGPGSTKPPRTPTANTSRPHHNFGSGGGGSPHHHHHH
Avg Absorbance Background subtract [1]: 1.450
Avg Absorbance at 5 min [1]: 1.45
PAA conc μM per disc [1]: 23.5 μM per disc
activity when bound to hydroxyapatite (in words) ([1]; with addition of triacetin and hydrogen peroxide): active enzymes when bound to hydroxyapatite
Peracetic acid (ppm) In Solution [2]: 5519 ppm
Peracetic acid (ppm) In Solution [7]: 5471 ppm
Peracetic acid (ppm) Exposed to Hydroxyapatite, Disc ([8]; disc-bound enzyme, 100 mM triacetin, 100 mM H2O2, 30 min, 37° C.): 2017 ppm
Peracetic acid (ppm) Exposed to Hydroxyapatite, Supernatant ([8]; unbound enzyme in supernatant after 10 μM enzyme on disc): 4864 ppm
